# Test results as given in publication PMC314469, “Protein Interaction Networks by Proteome Peptide Scanning” (PLoS Biology, 2004).
# Target: Sho1 SH3 (SHO1_YEAST), P40073
# Experiment: SPOT array
# Chain of Sho1 SH3 (SHO1_YEAST), P40073 (P40073 295-366): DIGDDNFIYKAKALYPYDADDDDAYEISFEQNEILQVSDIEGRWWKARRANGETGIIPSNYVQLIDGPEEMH
binder,measurement,value
EIAPLIPKKPALRK [597-610 component of vacuolar membrane protein complex],"normalised SPOT signal, Boehringer light units (BLU); mean over the file's lines of this peptide",183
GNIPVFPAKFGIQF [476-489 Mitochondrial outer membrane protein involved in mitochondrial morphology and inheritance],"normalised SPOT signal, Boehringer light units (BLU); mean over the file's lines of this peptide",213
ENKPFKPPRRVGSN [41-54 Putative helicase similar to RAD54],"normalised SPOT signal, Boehringer light units (BLU); mean over the file's lines of this peptide",164
GRIPQLPNRDEMTA [1268-1281 protein kinase],"normalised SPOT signal, Boehringer light units (BLU); mean over the file's lines of this peptide",39.3
EIAPSLPSRNSIPA [471-484 Actin binding protein],"normalised SPOT signal, Boehringer light units (BLU); mean over the file's lines of this peptide",163
FPDPNNPSKVQIRM [375-388 transcription factor],"normalised SPOT signal, Boehringer light units (BLU); mean over the file's lines of this peptide",166
ENAPANPSKALKVK [549-562 Arf-binding protein],"normalised SPOT signal, Boehringer light units (BLU); mean over the file's lines of this peptide",69.7
ENFPIVPLKSVAQD [638-651 transcription factor],"normalised SPOT signal, Boehringer light units (BLU); mean over the file's lines of this peptide",45.8
FPYPGNPLKIINYE [862-875 Pho85 kinase inhibitor],"normalised SPOT signal, Boehringer light units (BLU); mean over the file's lines of this peptide",214
EANPDNPKKLDLKA [783-796 Hypothetical ORF],"normalised SPOT signal, Boehringer light units (BLU); mean over the file's lines of this peptide",130
FVIPGVPSKSYSLF [310-323 H+-biotin symporter],"normalised SPOT signal, Boehringer light units (BLU); mean over the file's lines of this peptide",284
ETVPTEPTRYNYQN [1359-1372 negative regulator of early meiotic gene expression],"normalised SPOT signal, Boehringer light units (BLU); mean over the file's lines of this peptide",32.8
EHKPVSPDKIGTFT [81-94 transcription factor],"normalised SPOT signal, Boehringer light units (BLU); mean over the file's lines of this peptide",0
GLEPNTPLKSIKVD [340-353 isopropylmalate isomerase],"normalised SPOT signal, Boehringer light units (BLU); mean over the file's lines of this peptide",139
"ELEPQHPLRHKSSL [53-66 ""glucose repression protein, a component of the Snf1 complex""]","normalised SPOT signal, Boehringer light units (BLU); mean over the file's lines of this peptide",102
FFHPAIPLKNAAPF [112-125 Hypothetical ORF],"normalised SPOT signal, Boehringer light units (BLU); mean over the file's lines of this peptide",162
GSSPVSPDKRPSWK [66-79 vacuolar alpha mannosidase],"normalised SPOT signal, Boehringer light units (BLU); mean over the file's lines of this peptide",60.3
DYLPQHPHRTSSLP [109-122 scaffold protein for MAP kinase cascade],"normalised SPOT signal, Boehringer light units (BLU); mean over the file's lines of this peptide",87.8
"GSNPDLPNKSNLKF [307-320 "" Twinfilin A, an actin monomer sequestering protein""]","normalised SPOT signal, Boehringer light units (BLU); mean over the file's lines of this peptide",140
ERDPNMPKRPTNAY [88-101 HMG1-box containing protein],"normalised SPOT signal, Boehringer light units (BLU); mean over the file's lines of this peptide",83.8
FPYPFKPSRVGVKY [440-453 Hypothetical ORF],"normalised SPOT signal, Boehringer light units (BLU); mean over the file's lines of this peptide",121
GYDPTDPSRPRINE [1469-1482 Hypothetical ORF],"normalised SPOT signal, Boehringer light units (BLU); mean over the file's lines of this peptide",119
"FRFPRLPQKKKEEL [106-119 "" mRNA guanylyltransferase (mRNA capping enzyme), alpha subunit""]","normalised SPOT signal, Boehringer light units (BLU); mean over the file's lines of this peptide",773
ELDPISPLKVPLTA [276-289 involved in cell wall biogenesis],"normalised SPOT signal, Boehringer light units (BLU); mean over the file's lines of this peptide",127
GVYPSRPEKTYDYS,"normalised SPOT signal, Boehringer light units (BLU); mean over the file's lines of this peptide",109
"FTAPPVPTKKKSKN [316-329 "" Yeast homologue of mammalian GRASP proteins, also localised to the Golgi apparatus.""]","normalised SPOT signal, Boehringer light units (BLU); mean over the file's lines of this peptide",4360
GGQPPVPVRMQPQP,"normalised SPOT signal, Boehringer light units (BLU); mean over the file's lines of this peptide",120
EAAPQLPSRSSAAP [505-518 Actin binding protein],"normalised SPOT signal, Boehringer light units (BLU); mean over the file's lines of this peptide",86.7
FLPPPKPFRHTETK [587-600 Hypothetical ORF],"normalised SPOT signal, Boehringer light units (BLU); mean over the file's lines of this peptide",483
DYLPPVPEKNAGKQ [274-287 Mitochondrial ribosomal protein MRPL35 (YmL35)],"normalised SPOT signal, Boehringer light units (BLU); mean over the file's lines of this peptide",224
GAKPKIPSKLYQSV [124-137 Unknown],"normalised SPOT signal, Boehringer light units (BLU); mean over the file's lines of this peptide",145
GGDPTKPVRTWNDL [193-206 subunit of a cytoplasmic histone acetyltransferase],"normalised SPOT signal, Boehringer light units (BLU); mean over the file's lines of this peptide",112
ESHPELPNKDVKLD [158-171 putative methylenetetrahydrofolate reductase (mthfr)],"normalised SPOT signal, Boehringer light units (BLU); mean over the file's lines of this peptide",53.7
GAPPTTPSRPRTTT [91-104 phosphatidylserine decarboxylase located in vacuole or Golgi],"normalised SPOT signal, Boehringer light units (BLU); mean over the file's lines of this peptide",29.2
EMIPSSPQRKSVSN [51-64 Product of gene unknown],"normalised SPOT signal, Boehringer light units (BLU); mean over the file's lines of this peptide",164
GRHPDMPTRVKNAY [219-232 component of cytoplasmic chaperonin complex],"normalised SPOT signal, Boehringer light units (BLU); mean over the file's lines of this peptide",189
FSKPQEPVKAEEAE [393-406 Actin binding protein],"normalised SPOT signal, Boehringer light units (BLU); mean over the file's lines of this peptide",257
FQPPPKPFRRSQSS [657-670 Hypothetical ORF],"normalised SPOT signal, Boehringer light units (BLU); mean over the file's lines of this peptide",884
FHDPILPRRTSTFL,"normalised SPOT signal, Boehringer light units (BLU); mean over the file's lines of this peptide",275
EYFPISPEKKEEME [591-604 Hypothetical ORF],"normalised SPOT signal, Boehringer light units (BLU); mean over the file's lines of this peptide",56.7
EYSPLVPSKMSADK [356-369 mitochondrial protein; (putative) chaperone],"normalised SPOT signal, Boehringer light units (BLU); mean over the file's lines of this peptide",183
DYQPLSPPRELDPD [249-262 Hypothetical ORF],"normalised SPOT signal, Boehringer light units (BLU); mean over the file's lines of this peptide",75.3
"ELPPIKPPRPTSTT [619-632 "" contains 3 SH3 domains, interacts with Bee1p""]","normalised SPOT signal, Boehringer light units (BLU); mean over the file's lines of this peptide",102
"GPPPAMPARPTATT [192-205 "" contains 3 SH3 domains, interacts with Bee1p""]","normalised SPOT signal, Boehringer light units (BLU); mean over the file's lines of this peptide",89.9
EIPPPLPPKIMVHS [528-541 Ubiquitin-specific protease],"normalised SPOT signal, Boehringer light units (BLU); mean over the file's lines of this peptide",5100
GITPVGPGKFSRSA [256-269 mitochondrial ribosomal protein L2 of the large subunit],"normalised SPOT signal, Boehringer light units (BLU); mean over the file's lines of this peptide",156
FISPHLPMKGRLVL [471-484 Hypothetical ORF],"normalised SPOT signal, Boehringer light units (BLU); mean over the file's lines of this peptide",441
FDFPLSPVKHENPT [196-209 Product of gene unknown],"normalised SPOT signal, Boehringer light units (BLU); mean over the file's lines of this peptide",27.7
GNTPDAPKRGFLGY [44-57 Hexose transporter],"normalised SPOT signal, Boehringer light units (BLU); mean over the file's lines of this peptide",45.5
ERDPNAPKKPLTVF [100-113 35 kDa protein belonging to the high mobility group (HMG) fanily of proteins],"normalised SPOT signal, Boehringer light units (BLU); mean over the file's lines of this peptide",157
ENVPLYPSRRNIWE [81-94 Hypothetical ORF],"normalised SPOT signal, Boehringer light units (BLU); mean over the file's lines of this peptide",178
EVSPVEPKRTENER [687-700 putative serine/threonine kinase],"normalised SPOT signal, Boehringer light units (BLU); mean over the file's lines of this peptide",182
FSHPLSPLKSNFID [74-87 Hypothetical ORF],"normalised SPOT signal, Boehringer light units (BLU); mean over the file's lines of this peptide",164
"FWNPENPYKFVHPR [171-184 "" 1,4-glucan-6-(1,4-glucano)-transferase""]","normalised SPOT signal, Boehringer light units (BLU); mean over the file's lines of this peptide",129
EYHPIKPLRSSSST [234-247 Hypothetical ORF],"normalised SPOT signal, Boehringer light units (BLU); mean over the file's lines of this peptide",105
EILPQAPAKKVFES,"normalised SPOT signal, Boehringer light units (BLU); mean over the file's lines of this peptide",132
ELPPTHPIRLGLAL [164-177 Homolog of mammalian 14-3-3 proteins;member of conserved eukaryotic 14-3-3 gene family],"normalised SPOT signal, Boehringer light units (BLU); mean over the file's lines of this peptide",161
GYDPTDPNRPKVTK [1426-1439 Hypothetical ORF],"normalised SPOT signal, Boehringer light units (BLU); mean over the file's lines of this peptide",158
EILPVKPTKKSSKK [808-821 involved in bud site selection],"normalised SPOT signal, Boehringer light units (BLU); mean over the file's lines of this peptide",281
